Sequences and labels used below:
B1: Azoarcus group I ribozyme (parent)
chain: GUGCCUUGCGCCGGGAAACCACGCAAGGGAUGGUGUCAAAUUCGGCGAAACCUAAGCGCCCGCCCGGGCGUAUGGCAACGCCGAGCCAAGCUUCGGCGCCUGCGCCGAUGAAGGUGUAGAGACUAGACGGCACCCACCUAAGGCAAACGCUAUGGUGAAGGCAUAGUCCAGGGAGUGGCGAAAGUCACACAAACCGG

In the data set the parent is B1. Nature of the data set: reverse-splicing fitness (ratio to wild type); higher = more active; in vitro selection; Mg2+ level not given. A digest of the protocol: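 An in vitro group I ribozyme library with randomized positions was T7-transcribed and gel-purified. In triplicate, 10 pmol RNA in EPPS pH 7.5 was reacted with 50 pmoles of a 30-nt RNA substrate for 1 h at 37 °C across several added MgCl2 levels (1–48 mM), then stopped with EDTA. Products were reverse transcribed from a substrate-complementary primer, PCR-amplified and sequenced (HiSeq 4000). Fitness is a variant's read proportion after selection over that before, normalised to wild type.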
For C82U A111G A120G A145G C169G, the reverse-splicing fitness was determined as 0.0129.
C82A A120C A145G C150A: the reverse-splicing fitness came out at 0.0245.
Next, A111U A120U C150U C169A U176A: 0.00464; C82U A111C A120U C169A U176G: 0.00185; C82U A111C A120U C150A C169A: 0.00472.
In the case of C82U A120G C150U C169G it was 0.0167; in that of A111C A120G C150A C169A, 0.0171.
In the case of C82A A111G A120C A145U C169G U176C it was 0.0172; in that of A120G C150U C169U U176C, 0.159.
C82U A111C A120G A145C C150G U176A: the reverse-splicing fitness was found to be 0.00659.
In the case of C82A A111U A120G A145G C150A U176G it was 0.00816.
In the case of C82U A111U A120U A145U C150A C169U U176C it was 0.00234; in that of C82U A120G A145G C150U C169A U176G, 0.00486; in that of C82A C150G C169U U176C, 0.0109.
Next, C82A A111G A120U A145U C150G C169U U176A: 0.00252; C82G A111U C169G U176G: 0.00614.
Turning to C82U A111U A145U C150A C169G U176C, the reverse-splicing fitness was found to be 0.0121.
Regarding A120G A145G C169U, the reverse-splicing fitness turned out to be 0.441.
Consider C82A A145G C169A U176A, for which the reverse-splicing fitness worked out at 0.0185.
In the case of C82G A111U A120G A145G C150G it was 0.00786; in that of C82A A111U A120G A145G C169A U176C, 0.0259; in that of C82G A111G A120C A145C U176A, 0.0266.
For C82A A111C A120C A145C C150G C169G U176A, the reverse-splicing fitness amounted to 0.00867.
Next, A111G A145C C150U C169A U176C: 0.00832; C82U A111G A145C U176G: 0.0614; C82U A145G C169U U176C: 0.0131.
Regarding C82A A120C C150A U176G, the reverse-splicing fitness is 0.00826.
Next, C82G A111C A120G A145U C150A C169G U176G: 0.00522.
In the case of A111U C150A C169A U176G it was 0.00646; in that of C82A A111C A120C A145C C150U, 0.0124.
Turning to C82A A111U A120C A145C C150A C169A U176C, the reverse-splicing fitness is 0.0164.
In the case of C82A A120U A145U C150U C169G it was 0.00375; in that of C82G A120G A145G C150G C169A U176C, 0.013.
Consider C82A A111G A120U A145U C150U U176C, for which the reverse-splicing fitness was determined as 0.0108.
For the variant C82A A111G A120C A145C U176C, the reverse-splicing fitness was 0.024.
For the variant C82A A111G A120C A145C U176G, the reverse-splicing fitness came to 0.00728.
In the case of C82U A111C A120U A145C C150U C169U it was 0.00319.
Consider C82A A111G C150G C169U U176A, for which the reverse-splicing fitness was determined as 0.00656.
Regarding A111C A145U C150G U176G, the reverse-splicing fitness amounted to 0.022.
Take C82A A111G A120G A145G: the reverse-splicing fitness worked out at 0.0165.
Next, C82U A111U A120C A145C C150G U176G: 0.00237.
Next, C82G A111U A120C C150A U176C: 0.0231; C82U A111C A145U C169U U176A: 0.0163; C82U A111C A145C C169U U176A: 0.0157.
In the case of A145G C150G C169U U176G it was 0.00808; in that of C82A A120C A145G C169A, 0.00985; in that of C82G A120G A145G U176C, 0.0211.
For A111G A120G C150G, the reverse-splicing fitness was found to be 0.0248.
In the case of C82G A120U C150G C169A U176G it was 0.00278.
In the case of C82U A111C A120G A145G C150A C169G U176A it was 0.0146; in that of C82G C150G C169U, 0.00971; in that of C82U A145U C150U C169G U176A, 0.00933.
For the variant C82G A111C A120U A145G C150A C169G U176A, the reverse-splicing fitness came out at 0.00649.
Take A111G A120G A145G C150G: the reverse-splicing fitness was found to be 0.0366.
In the case of A111G A120G A145U C150A C169G it was 0.0305; in that of C82U A111C C150G C169A, 0.00807.
Next, C82A A111U A145C C150A C169G U176A: 0.029; C82U A111G A120G C150G C169G: 0.00749.
In the case of C82G A111C A120G A145G C169A U176A it was 0.0209; in that of C82G A111G A120G C169U U176A, 0.0199.
As to A120C C150U C169A U176C, the reverse-splicing fitness worked out at 0.017.
As for C82G A111U A145U C150U C169U U176A, the reverse-splicing fitness is 0.0142.
Next, C82A A120C A145C C150U U176A: 0.0172; C82A A120C A145C C150U C169G U176C: 0.0186.
Next, C82A A111G A120U C150G C169G: 0.00649; C82G A111G A120U C150U U176C: 0.0164.
Turning to A120G C150G U176G, the reverse-splicing fitness is 0.00499.
Next, A111U A145G C150A C169A: 0.0132; A111C A120C A145G C150U C169G U176G: 0.00574; C82U A120C A145G C150G C169G U176C: 0.0118.
In the case of C82U A111U A120U A145U C169G U176A it was 0.00244; in that of C82A A120U U176A, 0.0313.
As to A111G A120C A145U C150G C169U U176G, the reverse-splicing fitness was 0.00422.
For A111G A120C A145C C150G C169U, the reverse-splicing fitness is 0.0377.
In the case of C82A A111U C150A C169G U176C it was 0.0266; in that of C82U A111C C169A, 0.00958.
In the case of C82U A111C C169U, the reverse-splicing fitness came to 0.0123.
Next, C82A A111C A120G A145U C150A C169G U176G: 0.00576; C82U A120U A145C C150A C169G U176C: 0.00196.
Consider A120C A145G C169U, for which the reverse-splicing fitness is 0.47.
Consider A120C A145G C169G, for which the reverse-splicing fitness is 0.0256.
On to C82A A111C A120G A145C C150U U176A, for which the reverse-splicing fitness turned out to be 0.00894.
In the case of A145G C169G U176G it was 0.00802.

(Values after the RNAGym collection of RNA variant scans (doi:10.1093/molbev/msab373).)
